Measurements: doi:10.1101/2023.05.29.542693 (bioRxiv, 2023)

Assays:
[1] = target: Escherichia coli GroEL (wild-type, tetradecamer) (E. coli, UniProt P0A6F5 1-548); experiment: cryo-EM structure
cryo-EM structure = target: the molecule itself; experiment: cryo-EM structure

Sequence of Escherichia coli GroEL (wild-type, tetradecamer) (P0A6F5 whole entry): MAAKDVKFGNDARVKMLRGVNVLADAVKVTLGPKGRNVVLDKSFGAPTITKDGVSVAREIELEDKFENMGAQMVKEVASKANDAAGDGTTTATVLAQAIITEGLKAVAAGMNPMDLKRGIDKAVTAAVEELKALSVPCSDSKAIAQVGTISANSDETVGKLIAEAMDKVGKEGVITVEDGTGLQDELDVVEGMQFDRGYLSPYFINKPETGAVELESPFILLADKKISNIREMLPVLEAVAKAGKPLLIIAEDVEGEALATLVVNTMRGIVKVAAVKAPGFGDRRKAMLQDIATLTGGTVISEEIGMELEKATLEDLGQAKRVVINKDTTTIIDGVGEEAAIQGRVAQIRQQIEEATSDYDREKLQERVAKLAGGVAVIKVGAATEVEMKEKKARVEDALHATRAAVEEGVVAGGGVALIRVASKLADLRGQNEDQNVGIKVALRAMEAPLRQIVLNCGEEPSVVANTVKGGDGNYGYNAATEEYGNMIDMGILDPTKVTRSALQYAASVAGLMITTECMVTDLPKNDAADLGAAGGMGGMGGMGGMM

binding result [1]: binds
B1: Escherichia coli GroES (heptameric co-chaperonin) (natural protein)
chain: MNIRPLHDRVIVKRKEVETKSAGGIVLTGSAAAKSTRGEVLAVGNGRILENGEVKPLDVKVGDIVIFNDGYGVKSEKIDNEEVLIMSESDILAIVEA
binding result (cryo-EM structure): binds
